Results reported in PMC10267116, “Structural and functional analysis of a plant nucleolar RNA chaperone-like protein”.

T1: NURC1 1-160 (Arabidopsis thaliana, UniProt Q9LZ65 1-160)
T1 sequence: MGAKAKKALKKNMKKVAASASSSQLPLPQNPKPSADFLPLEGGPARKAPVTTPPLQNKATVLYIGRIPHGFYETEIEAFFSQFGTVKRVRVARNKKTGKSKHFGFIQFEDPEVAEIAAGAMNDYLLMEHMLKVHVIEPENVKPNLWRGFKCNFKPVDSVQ

T2: NURC1-FL (Arabidopsis thaliana, UniProt Q9LZ65 1-222)
T2 sequence: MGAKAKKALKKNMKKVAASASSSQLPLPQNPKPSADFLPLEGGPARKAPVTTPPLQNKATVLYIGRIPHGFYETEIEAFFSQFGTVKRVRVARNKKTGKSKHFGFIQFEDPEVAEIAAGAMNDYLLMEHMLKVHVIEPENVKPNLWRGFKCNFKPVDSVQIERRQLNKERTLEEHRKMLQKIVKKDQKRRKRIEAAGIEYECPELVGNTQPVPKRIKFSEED

B1: ITS2 1-79 (stem I and II) (structured_RNA)
RNA: GGAUCGUCGUCCCUCACCAUCCUUUGCUGAUGCGGGACGGAAGCUGGUCUCCCGUGUGUUACCGCACGCGUUGGCCUAAUU
B2: ITS2 82-162 (stem III) (structured_RNA)
RNA: GGAGCCAAGGACGCCUGGAGCGUACCGACAUGCGGUGGUGAACUUGAUCCAUUACAUUUUAUCGGUCGCUCUUGUCCGGAA

Experiments:
NURC1 1-160 [1] = target: T1, NURC1 1-160; test: MST; conditions: MST: 10 nM labelled RNA, 20 mM Tris-HCl pH 8.0, 150 mM NaCl, 0.1 mg/ml BSA, 1 mM DTT, 0.1% Tween-20, room temperature, 5 min
[2] = test system: NURC1 1-140 (Arabidopsis thaliana); test: MST; conditions: MST: 10 nM labelled RNA, 20 mM Tris-HCl pH 8.0, 150 mM NaCl, 0.1 mg/ml BSA, 1 mM DTT, 0.1% Tween-20, room temperature, 5 min
NURC1-FL [3] = target: T2, NURC1-FL; test: MST; conditions: MST: 10 nM labelled RNA, 20 mM Tris-HCl pH 8.0, 150 mM NaCl, 0.1 mg/ml BSA, 1 mM DTT, 0.1% Tween-20, room temperature, 5 min
NURC1 1-160 [4] = target: T1, NURC1 1-160; test: MST; Kd only in figure/Table S5; MST: 10 nM labelled RNA, 20 mM Tris-HCl pH 8.0, 150 mM NaCl, 0.1 mg/ml BSA, 1 mM DTT, 0.1% Tween-20, room temperature, 5 min; conditions: protein: recombinant; tags: 6xHis (pET-28a) removed with thrombin; label: Cy5-UTP incorporated (Cy5-UTP/UTP 1:15)
NURC1-FL [5] = target: T2, NURC1-FL; test: as above; conditions: protein: recombinant; tags: N-terminal 6xHis (pET-28a, NdeI/XhoI) removed with thrombin; label: Cy5-UTP incorporated (Cy5-UTP/UTP 1:15)

| Molecule | Kd (NURC1 1-160 [1]) | Kd [2] | Kd (NURC1-FL [3]) | binding result (NURC1 1-160 [4]) | binding result (NURC1-FL [5]) |
| --- | --- | --- | --- | --- | --- |
| ITS2 FL | 116 nM | 938 nM | 228 nM |  |  |
| B1 |  |  |  | binds | binds |
| B2 |  |  |  | binds | binds |
